In patent US20250041437A1, “HUMANIZED MUC1 ANTIBODY AND ANTIBODY DRUG CONJUGATE” (Sun Pharma Advanced Research Company Limited, priority 2023, published 2025):
Positions count from the first letter of the chain named.

T1: MUC1-X-FL-1116 (R1108A, E1109A, N1113A, D1116A) (Homo sapiens, UniProt P15941, D1116A/E1109A/N1113A/R1108A)
T1 construct: wild-type MUC1-X extracellular domain (MUC1-X-FL-WT); His (implied by Ni-NTA purification; pET30a(+) vector); made in house; host or cells: E. coli (pET30a(+))
T1 sequence (P15941 24-115 isoform P15941-8 limits assumed): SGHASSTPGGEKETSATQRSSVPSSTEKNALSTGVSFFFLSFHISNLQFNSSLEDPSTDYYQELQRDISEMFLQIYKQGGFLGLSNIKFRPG
T1 sequence (P15941 1098-1158 R1108A/E1109A/N1113A/D1116A limits assumed): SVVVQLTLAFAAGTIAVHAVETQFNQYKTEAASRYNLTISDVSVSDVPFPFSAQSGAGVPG

T2: recombinant human MUC1-SEA (Homo sapiens, UniProt P15941)
T2 construct: on recombinant human MUC1-SEA on SPR; purchased Acrobiosystems MU1-H52H9
T2 sequence (P15941 1039-1148 limits assumed): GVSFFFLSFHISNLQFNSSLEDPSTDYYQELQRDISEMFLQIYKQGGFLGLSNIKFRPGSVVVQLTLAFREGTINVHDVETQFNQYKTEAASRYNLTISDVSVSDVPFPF

T3: MUC1-X-FL-1118 (R1108A, E1109A, N1113A, E1118A) (Homo sapiens, UniProt P15941, E1109A/E1118A/N1113A/R1108A)
T3 construct: wild-type MUC1-X extracellular domain (MUC1-X-FL-WT); His (implied by Ni-NTA purification; pET30a(+) vector); made in house; host or cells: E. coli (pET30a(+))
T3 sequence (P15941 24-115 isoform P15941-8 limits assumed): T1 sequence (P15941 24-115 isoform P15941-8 limits assumed)
T3 sequence (P15941 1098-1158 R1108A/E1109A/N1113A/E1118A limits assumed): T1 sequence (P15941 1098-1158 R1108A/E1109A/N1113A/D1116A limits assumed) with A19D, E21A

B1: chi 5F3: chimeric anti-MUC1 SEA antibody of WO 2021/186427; variable regions SEQ ID NOs: 42 and 43; parent of the humanized antibodies (antibody, V domains shown)
VH: MRVLILLCLFTAFPGVLSDVQVQESGPDLVKPSQSLSLTCTVTGHSITRGSSWHWIRQFPGNKLEWMGYIHYGGGTSYNPSLKSRISITRDTSKNQFFLQLNSVTTEDTATFFCARYSYDITYRWFFDVWGAGTTVIVSS
VL: MVSTPQFLVFLLFWIPASRGDILLTQSPAILSVSPGERVSFSCRASQNIGTSIHWYQQRKNGSPRLLIKYASESISGIPSRFSGSGSGTDFTLSINSVESEDMADYYCQQNNNWPLTFGAGTKLELK
notes: chimeric anti-MUC1 SEA antibody of WO 2021/186427; parent of the humanized antibodies
B2: HM3 LM3: variant of SP66; VH HM3 SEQ ID NO: 9, VL LM3 SEQ ID NO: 14 (antibody, V domains shown)
VH: EIQLVQSGAEVKKPGSSVKVSCKVTGHSITRGSSWHWMRQAPGQGLEWIGYIHYGGGTSYNPSLKSRATLTRDTSTNTAYMELSSLRSEDTAFYFCARYSYDITYRWFFDVWGQGTLVTVSS
VL: DIQMTQSPSTLSASVGDRVTITCRASQNIGTSIHWYQQKPGKAPKLLIKYASESISGVPSRFSGSGSGTEFTLTISSLQPDDFATYYCQQNNNWPLTFGQGTKVEVK
B3: HM2 LM3: variant of SP66; VH HM2 SEQ ID NO: 8, VL LM3 SEQ ID NO: 14 (antibody, V domains shown)
VH: B2 VH with A68I, L70I
VL: B2 VL
B4: HM2 LM2: variant of SP66; VH HM2 SEQ ID NO: 8, VL LM2 SEQ ID NO: 13 (antibody, V domains shown)
VH: B2 VH with A68I, L70I
VL: B2 VL with Y50R
B5: HM5 LM3: variant of SP66; VH HM5 SEQ ID NO: 11, VL LM3 SEQ ID NO: 14 (antibody, V domains shown)
VH: B2 VH with A68I, L70I, A79F
VL: B2 VL
B6: HM4 LM3: variant of SP66; VH HM4 SEQ ID NO: 10, VL LM3 SEQ ID NO: 14 (antibody, V domains shown)
VH: B2 VH with A79F
VL: B2 VL
B7: HM4 LM2: variant of SP66; VH HM4 SEQ ID NO: 10, VL LM2 SEQ ID NO: 13 (antibody, V domains shown)
VH: B2 VH with A79F
VL: B2 VL with Y50R
B8: HM3 LM2: variant of SP66; VH HM3 SEQ ID NO: 9, VL LM2 SEQ ID NO: 13 (antibody, V domains shown)
VH: B2 VH
VL: B2 VL with Y50R
B9: HM5 LM2: variant of SP66; VH HM5 SEQ ID NO: 11, VL LM2 SEQ ID NO: 13 (antibody, V domains shown)
VH: B2 VH with A68I, L70I, A79F
VL: B2 VL with Y50R

Key:
[1] = target: T1, MUC1-X-FL-1116 (R1108A, E1109A, N1113A, D1116A); assay: Epitope mapping ELISA, mutant MUC1-X-FL-1116; type: binding; conditions: mutation at position 1116
[2] = target: T2, recombinant human MUC1-SEA; assay: Binding strength by Surface Plasmon Resonance (SPR); conditions: Table 2, variants of humanized anti-MUC1 5F3 mAb
Method: Binding strength assessment using Surface Plasmon Resonance (SPR): MUC1 antigen (Acrobiosystems, Cat: MU1-H52H9) was captured on the anti-His immobilized on CM5 chip at 5 μl/min flow rate for 60 s. Post this concentration range of 0-50 nM of antibody or ADC is passed over MUC1 antigen at a flow rate of 30 μl/min flow rate for 120 s, keeping dissociation time of 1800 s at 25°. The dose response generated is evaluated on BIAevaluation software for the calculation of affinity of antibody to antigen as measured by dissociation constant (KD).

[3] = target: T3, MUC1-X-FL-1118 (R1108A, E1109A, N1113A, E1118A); assay: Epitope mapping ELISA, mutant MUC1-X-FL-1118; type: binding; conditions: mutation at position 1118

Row | Molecule | binding to MUC1 mutant (in words) [1] | ka [2] [M⁻¹ s⁻¹] | binding to MUC1 mutant (in words) [3]
1 | B1 | maintained | 4.39e+06 | lost
2 | B2 | – | 4.47e+07 | –
3 | B3 | – | 3.14e+06 | –
4 | B4 | – | 1.77e+06 | –
5 | B5 | – | 3.97e+06 | –
6 | B6 | – | 2.88e+06 | –
7 | B7 | – | 4.08e+06 | –
8 | B8 | – | 2.65e+06 | –
9 | B9 | – | 4.8e+06 | –
